Results reported in a protein production outcome set (Wang et al. 2014).

Test: label from the status in PepcDB records
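Note: failed if final PepcDB status was selected cloned or expressed and not failed if soluble or beyond.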

Sequence | protein production
MIEQELTYQDLRIPSSEIYEAMGYKDSIPDQMVIDETNTLLKRVIPLLRPRFAFFFMEGTLDIEKETLSVQSIHPPTVNPIQDTIPTRSPEQNTFSTQSKSTVFSVGKTIARQLRGSEAFVFFAATAGTEFEVFQHTLQQEEDMVKIYIADSLGSIIAEKTADCMEVALAEYIREKNWKHTNRYSPGYCGWHVSEQQKLFPLFPIAAPCGIRLTDSSLMVPIKSVSGVIGTGTNVRKLEYTCGLCTYENCYRKRKHR | not failed
MIESAVGKAAYSTAAFLIKSLPVVVIAIYAVSYSIKKGYLERFALFLQPALRKFGVSEFAVISFATCFVSPTASYSMLSQAWREKKVDDREVIAISFLNSFPSVFSHLYAYFIPFVIPVLGFAGVVYTAVRFAVAAIKSLIGLLLSRSRKNSDTSAPELSPLSVSQNVVRIGAVMAATYFIVSLLSQLGVFDLMAESLKFLPFRAEAVTIAIVEFFNIRSAVVTAASFIDAGLEWKWAVIGLILGNVISFSTRSVKHSLPMHLSLFGGFGVKIVLLNSIVTLILDIFFVVLLLLV | failed
MIETLITFIIIFGIIVAIHEYGHLWWAKRSGILVREYAVGMGPKIFAHQAKDGTLYTIRILPLGGYVRLAGWGDDKTEIKKGQAASLVVSKSEVVNPEAENSVSNIVRRINLSEHVELEEAIPMLITEYDFEKELFIEGEVFGEIKRYSVDHDATIIEEDGTEVRIAPLDVQYQSAGVFHKMLTNFGGPLNNFILGIIAFIVLTFVQGGVPSTTNAIGQVEKGTPAYNAGLKAGDKIEAVNGTKTADWNNVVTEISGSKGKELKLEVSRSGKSETLSVTPKKMDGSYRVGIMQSMKTGFFDKITGGFVQAGQSATAIFKALGSLIARPSLDKLGGPVAIYQLSGQAARAGFPAIVYLLAMLSINLGIVNLFPIPVLDGGKIVLNIIEAIRGKALSQEKESIITMVGVVFMLVLFVAVTWNDILRAFVN | failed
MIFERIKSEGLAHLSYLIGSGDEAIVIDPRRDCQVYFDLARSKGMKIKYIFETHRNEDYIIGSLELEKLTDAGIYHGSGVDFKYGNILKKDRQEFIFGALKLTALHTPGHTDESMSYVLTDPDAGKEPIMVFTGDALFVGDVGRTDLYGPEEVPRLAANLYDSIFNKILPLGDGVILCPAHGAGSLCGGAISNREYSTLGLEKVQNPVLKKTEKEEFVKFKLEEKLEFPPYFKKMEQYNLQGPPLLQSLPIPKLLSPDEFKAEMEKGAVVVDTRMPHSFGGALIKGSYSIWLEGLPSFAGWMLPYDKPILLVLEEKEQLETAVRYLVRLGYDNMRGFLNGGIAAWYMEALQIDGFNLLSVHDLKSKLEKDEEIVILDVRSNEEWEEGHIEGARHIYVGHVEENLDEIPKDCPIVVYCGSARRSNIAASVLKKHGYRKIYNVLGSMVAWKNAGYEVVK | failed
MIFIKKPSLKALSCASILFALSGCVPPNQFGEDYSRDVCKTKRDELIALDNHFSSNMVAGGIIGTLAGAGLGAAAAAATNGDIITATLIGAAAGMAVGAGSAYWNELSKQHGEGELLLFSLLGDMRRDEEKVTKAQIALDNLMSCRRTEAAQVHADYRAKRISAQEAKTRMEAIRRRAEKDVSVAKDINKGVQDRRGSYEYAFEQSKKIKTKNKKDKKKIEKTYTSMDKYCGSYNTSVQVAETSLNTEFKADGFTSSYLIYPDSTPNTQISCR | failed
MIFMRKVVAEVSIIPLGKGASVSKYVKKAIEVFKKYDLKVETNAMGTVLEGDLDEILKAFKEAHSTVLNDVDRVVSSLKIDERKDKENTIERKLKAIGEL | not failed
MIFNSARLKDMDIQYQILRQIEKYQTIIIHRHQRPDPDAVGSQLGLKNGLQAAFPEKNIYAVGKEITGLAWVGSMDIIPDSTYENALVIVIDTANVARIDDDRFKNGDKLIKIDHHPNDEPYGDLMWVEPGRSSCSEMVTFFLDDNIPLLLTDEAARNLYIGIVGDTGRFMYASTPETFIAVSKLYHFSIDYERVNREMSSISLVQARFSGKVYDEMKVEDHVGWITLTKAEIEAGHLGNEGTNFVVGMFGSIKEVLVWANFIENDDGSYRVRLRSKGPNVNEIAKLHNGGGHDMASGAKAKDQTEIDQIIKELKESANIFSTSLEKTAK | failed
MIFSQRIYFIILFHVLLILVTAGTGLWLVVSHTGYIIGGILLLCSLFQIGALTRQLNTFNRKIRLFFDAVQDKDNMLYFPEANVGKEQAQLNRSLNRLNDLLARTKGESHKQEHFYQSLLEEVPSGVLAWDDSGRIIIANSAAFSLLKCNRLYTETQLAQLLNATGIRKSLSISEKKMILDGETITILSIKDIGDELSDKENESWSKLTHVLTHEIMNTIAPILSLSQTLSERPDINEKSARGLRIIQAQSERLMEFTESFRHLSYLPHPEKRRFALTEMLRNLEELLQSDFRERGIRFMLQCVPDPIETDGDPNQLSQVFLNLLKNAMQALEGQADGRIILRVRRADRLQVEIEDNGPGIPEEIREQIFIPFFTTKTEGSGIGLSLCKQIIRQHDGHLSIRESRPGQTIFSLDLP | failed
MIGGSLDAFIGSVHRMAAALDGTIELVCGAFSSNAARSIQTGEALHLPKERIYASYEEMIVQEAQLPADVRMQFVSIVTPNHLHAQPALLALKHGFHVLCEKPLAFSVAEAEQLGIQVKETGLLFGLTHTYTAYPMVKEARDLIAKGKLGTIRKIIVEYPQGWLSAPIESDGQKQAGWRTDPAQAGLSCCVGDIGTHAENIAEYITGLKITELSADVSSVVAGRKLDDDANILLRFDNGAKGVLIASQIANGEENELKIRVYGEHAGLEWLQSEPNTLIVKQNDQPTQLRRAGANHSYLSEHARLHCRIPAGHPEGYIEAMANIYRNFSKAVHSFEDQITHNPLLDYPTIEDGIRGMKFIETVIISGKENATWKQLLEHHHHHH | not failed
MIGKVLEGRYEIVSELGGGGMARVYRGQDRLLNRNVTIKILREQYASDKEFLARFQREAQAVASLSHPNVVSIYDVGQEDDLHYLIMEYVEGRSLKDLISERAPLPPLEAIDISLQICDALEHAHENGVIHRDIKPHNILITRNGRVKVTDFGIAQAVSEVTMSQSGTMIGSVHYLAPEQARGGVIGATADIYSLGIVLYEMLTGDLPFHGETPVAVALKHLQENPRPVRELNPNVPPALERVVMRTLEKDPARRYPSAAALRSDLLAVRNALADATFATQVLPAIETPDPPSTLPKPRRRPRVWAWVLMALLFLGLAAAGLWAGFRYYLAVGETLVPSVVGLPEGQALEQLAAAGLRGQVIARQYDASVPAGQVMAQDPGPNQRVRRGRVVALTVSQGARLVRVPSVIGETERNARLILENANLKVAADTLKVYHPSIPAGSVVDQNPPANTQQPEGTEVRLIISKGPEPQFTTAPSVVGLSLAEAQQKLLEAKLKQGTLTYQRSDNQFPGYIIAQDPREGSNVLQGSAINLVVSQGPGPVQKQVGVTIDPAPDDKDHEVRIVVTDAKGTNEVLKKKQKMGQQIQATINYFGKGKLQVFRDGNVIYEQDLQ | failed
MIGLVPSPIELSYISDISVPKAASAPAYYDLRALNRLTSVKDQGTAGTCWAFASYSSLESYLKPGEDWDFSENNMKNLLSSAYQEGFDRDPNDGGNRIQAAAYLARWSGPVKESDDPYSTFSGVSPADLPIKKHVQDVIFIPDRADPLDNEAIKWAVQNYGAVYTTMHYNNTFYSPEYYSYYFNGTSEPNHAVAIVGWDDSYDRNNFSKVPPGNGAFIMKNSWGPEWGDKGYFYVSYYDSKAGNGSSVFTAENPENYEYIYQYDPFGWVSSMGYSKPLAWVSNVFTAKSDEVLKAVSFYTTDSNCNYEIYIYTDPVSGPINPAGPVLSKNGTCLTAGYHTIPLDSEVRLIAGQKFSVVIKLTNPSYRYLIPLEKPKDSWSSKARANTGESFISSSGSTWTDVNTSYANSNVCIKAFTNSVLLPIANFSSNITEGYAPLSVQFRDLSGHSTDRTWDFENDGNIDSVEANPIHLFSAPGSLEHHHHHH | failed
MIGMDHLAIGTYEGFLIGYDIDTQPNDPKTTTGCTLRYAYAAHERSIRCIAGSFPILASASVDESIKVYQLDQLQELATLYDLQVPVNSVDIQLQGGLLSGGEDGKLVYYPYGGWSKPKYLKGHKGNVHSVALHPTGQICLSVARDKCLKLWKTNGDCVCSLELPDEAFIVKWTEDGQGWVIATQTSFSVHSLQTGLIQQWEYSTRLVCLCALTNDIFVVGGMDGHLRVGENKPIQVHKVDGGSLVKGIGVGRDGCIYSLSSKGVLEMVAPSRQLEIQNGVVKRYIE | failed
MIGYVLNGEHEEIPYGELMALLEIFNYNGSVERLKRYVITEDSPAKDIVKRSGYIDEGHRIIFRYNLEEKSVDLVDKIVNDFINSFKDFVANIDYPDIDESKSYAVRVLKLHKDEFTKSIDSLRIEKEIGGIIKLKTNAKVNLTKPDILVRVVILENTFFISNVLEMRDREYFQKNRPHLRKYFHPGCMLPKLARAMVNLARVKEGDIVLDPFCGTGGFLIEAGLIGAKLIGCDIDWRMASGTLINLEEYNLLDKVIKVKRLDAKYVKEFLNELNIEKVDAIVTDPPYGISTAKKGEIEKILETLPEVIKDNGYFVFAYPKKIELDMELEGLYKVYIHKGLIRHIHVYKKI | failed
MIHITSQACFLWHTTINKICNRPMFNPLTIRFWGVRGSIPCPGSHTVRYGGNTPCVEIQANGQRIILDGGTGLRVLGEHLMGQQPVTAHLFFTHTHWDHIQGFPFFQPAFVPGNQFHIYAVPGKNGQGIERRLNDQMLHPNFPVPLQIMGGDLRFYDLEVGERVHLGDGVVVSNEALNHPGGGVGYRVSWQGIHVAYITDTEHLPDRLHPGAFALADHADVMIYDATYTDEEYYHPQQSKVGWGHSTWQEAVKLAQAAQVKQLILFHHDPSHDDDCLDRIGELARAQFPQTLLAREGLIISVYPNVIHFPATPQASLEHHHHHH | failed
MIIESRIEKGKPVVGMETTVFVHGLPRKEAIELFRRAKEISREKGFQLAVIGILKGKIVAGMSEEELEAMMREGADKVGTREIPIVVAEGKNAATTVSATIFLSRRIGIEVVVTGGTGGVHPGRVDVSQDLTEMSSSRAVLVSSGIKSILDVEATFEMLETLEIPLVGFRTNEFPLFFSRKSGRRVPRIENVEEVLKIYESMKEMELEKTLMVLNPVPEEYEIPHDEIERLLEKIELEVEGKEVTPFLLKKLVEMTNGRTLKANLALLEENVKLAGEIAVKLKRS | not failed
MIIGIDLGTTNSAVAYIDDSGNPTILPNREGERVTPSVIFFEDGSPVIGSTAKSISVSDPTNTVQFVKRQMGNASYKFPIGGEVFTPEDLSALILKRLKEDAEEAIGAKVTKAVITVPAYFDDAQRKATQDAGRIAGLHVLKVINEPTAAALAYGLANREQKQNVMVYDLGGGTFDVTLIQLNQDEVVVKATGGDRNLGGFDFDNKIFELVEQKFEEEHGLDLYDDLNAVQDLREKAEACKKMLSSRKKSVITLSSQGRTVKVEVTKEKFDELLSPLLSRTALIMKNVLMDAELSWGDIDKIVLVGGSTRVPAVSDLIERTTGIKPSKDVNPDEVVALGAAIQGSLLQVDNEASNNAEEFKPKTRVVDVNSHSLGILIHDNNTGGFINQKMIVRNTPIPASEEAVFYTVNDGQTSLHVQVTEGEDSDPDFVKVIGESNLDLRGSKPQGYPVRFIFTYDENGVVHVYGKDENTGQHLGEMQIERKSNLTEAAIEKKAEKLAGISVE | failed
MIIKNKMVKRLISTFLMSLLLASMMLVIGAGNVYAQGSVSSTSLQVSADGSDYYIIGSDFYNHFVRPTTVDLAKNKVVYNKQILTVYNGRIDKWKMSFLNQDSSGKSWFKFLSYPEATKGDIKITYTTDGINYSDSKPSLEQLKGYMVELLKPIVYPDDANNQENDIEVSFQLSPDTDYILSNSNLNKQFIPFSGENWLQNYSPYPFFTDRNQLQFVYPDYSKGVMVKYVDEEGNEIHDPQTISGSKGDVYDASTDQYKLVLDGYTLDTSKLPQNSIGNFKEALQTVTYVFSKNPVLAADVTVRYVDKENNPISEDIILQGNIGENYYTDKKILKIIL | failed
MIIKPAGDSAFLISFGDEISEEINDRVHSLAKAIEKESPEWLVELVPAYSSLLVIYDPLKASYEEVESYLKRISAREVERIKGKTIEIPVAYGGEFGPDIEFVAQYNGLSVDDVIEIHSKPLYRVYFLGFLPGFAYLGGMDERIATPRLEKPRLKVPAGSVGIAGKQTGWYAIESPGGWRIIGRIPLRTFNPGKVPPSIVLPGDYVKFVPIDEKEFWEIYGREWE | not failed
